In paper PMC7398557 (Nature, 2020):

Target: the molecule itself
Experiment: cryo-EM structure

B1: human acyl-CoA:diacylglycerol acyltransferase 1 (DGAT1) (enzyme)
chain: MGDRGSSRRRRTGSRPSSHGGGGPAAAEEEVRDAAAGPDVGAAGDAPAPAPNKDGDAGVGSGHWELRCHRLQDSLFSSDSGFSNYRGILNWCVVMLILSNARLFLENLIKYGILVDPIQVVSLFLKDPYSWPAPCLVIAANVFAVAAFQVEKRLAVGALTEQAGLLLHVANLATILCFPAAVVLLVESITPVGSLLALMAHTILFLKLFSYRDVNSWCRRARAKAASAGKKASSAAAPHTVSYPDNLTYRDLYYFLFAPTLCYELNFPRSPRIRKRFLLRRILEMLFFTQLQVGLIQQWMVPTIQNSMKPFKDMDYSRIIERLLKLAVPNHLIWLIFFYWLFHSCLNAVAELMQFGDREFYRDWWNSESVTYFWQNWNIPVHKWCIRHFYKPMLRRGSSKWMARTGVFLASAFFHEYLVSVPLRMFRLWAFTGMMAQIPLAWFVGRFFQGNYGNAAVWLSLIIGQPIAVLMYVHDYYVLNYEAPAAEA
With B1 the “stoichiometry N” value was 2.
